Measured values: patent publication US6660837 (KIRIN BEER, dated 2003)

How the values were obtained:
[1] = biological target: T1, PKN purified from rat testis cytosol (rat, UniProt Q63433 2-946, limits assumed); experiment: apparent Ki from kinase kinetics with δPKC peptide substrate; double-reciprocal plots and secondary plot of Km/Vmax
T1 construct: also called purified PKN; rat PKN

[2] = biological target: catalytic subunit of bovine heart PKA (bovine, UniProt P00517 2-351); experiment: cell-based or functional assay
[3] = biological target: T1, PKN purified from rat testis cytosol; experiment: cell-based or functional assay
[4] = biological target: T2, LexA DNA binding domain fused to PKNN1 (amino acid sequence 1-540 of PKN), pBTM/PKNN1 (human, UniProt P0A7C2 1-202 (Escherichia coli entry)); experiment: yeast two-hybrid, lacZ expression in L40 cells
T2 construct: also called LexAbd-PKN; LexA-PKNN1
T2 sequence (P0A7C2 other isoform, or with tags, fused parts or gaps limits assumed): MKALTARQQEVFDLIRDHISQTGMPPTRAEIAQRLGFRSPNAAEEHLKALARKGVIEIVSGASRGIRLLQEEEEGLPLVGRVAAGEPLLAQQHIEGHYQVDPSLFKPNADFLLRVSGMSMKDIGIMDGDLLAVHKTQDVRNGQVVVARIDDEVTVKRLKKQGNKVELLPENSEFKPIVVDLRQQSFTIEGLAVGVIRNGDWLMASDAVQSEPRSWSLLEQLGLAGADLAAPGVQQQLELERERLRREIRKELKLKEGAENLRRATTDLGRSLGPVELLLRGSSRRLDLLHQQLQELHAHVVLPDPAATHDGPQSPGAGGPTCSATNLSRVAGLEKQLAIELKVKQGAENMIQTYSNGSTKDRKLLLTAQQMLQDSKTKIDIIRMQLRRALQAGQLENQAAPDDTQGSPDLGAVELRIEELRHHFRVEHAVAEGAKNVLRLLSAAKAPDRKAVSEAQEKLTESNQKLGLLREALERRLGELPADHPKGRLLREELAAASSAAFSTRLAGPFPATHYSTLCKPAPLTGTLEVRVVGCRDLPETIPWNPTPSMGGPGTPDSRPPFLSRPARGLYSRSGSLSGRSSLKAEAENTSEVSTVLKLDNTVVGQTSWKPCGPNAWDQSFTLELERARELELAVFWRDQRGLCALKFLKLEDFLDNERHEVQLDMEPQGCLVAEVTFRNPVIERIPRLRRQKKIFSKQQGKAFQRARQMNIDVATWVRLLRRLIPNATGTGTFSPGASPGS

[5] = biological target: RhoA^Val14CLVL^- fused to the VP16 activation domain (human, UniProt P06492 413-490; P61586 1-189); experiment: yeast two-hybrid with truncated PKN
[6] = biological target: T3, Gal4 DNA-binding domain fused to PKNN1 (amino acid sequence 1-540 of PKN), pGBT9 (human, UniProt P04386 1-147 (Saccharomyces cerevisiae entry)); experiment: yeast two-hybrid library screen, HIS3 and β-galactosidase
T3 construct: range 1-147; also called Gal4bd-PKN

[7] = biological target: T4, PKNN2 (N-terminal region of PKN, amino acid sequence 1-474), 35S-labeled, in vitro translated (human, UniProt Q16512 1-474, [35S]methionine label); experiment: GST pull-down of 35S-labeled in vitro translated PKNN2
T4 construct: also called in vitro translated PKN-N; PKN prepared by in vitro translation
T4 sequence (Q16512 1-474): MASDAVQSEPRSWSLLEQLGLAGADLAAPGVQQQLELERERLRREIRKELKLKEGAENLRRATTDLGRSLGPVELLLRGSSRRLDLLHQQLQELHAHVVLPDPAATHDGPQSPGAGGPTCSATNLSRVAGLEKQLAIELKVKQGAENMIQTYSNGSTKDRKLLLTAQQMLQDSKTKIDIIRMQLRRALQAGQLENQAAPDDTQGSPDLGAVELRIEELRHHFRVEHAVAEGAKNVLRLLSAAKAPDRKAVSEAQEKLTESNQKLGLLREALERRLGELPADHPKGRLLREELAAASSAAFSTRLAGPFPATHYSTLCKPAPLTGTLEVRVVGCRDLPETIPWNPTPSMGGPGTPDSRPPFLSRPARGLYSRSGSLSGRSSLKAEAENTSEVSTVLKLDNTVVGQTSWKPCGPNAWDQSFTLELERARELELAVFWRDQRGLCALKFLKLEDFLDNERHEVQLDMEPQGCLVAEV

B1: PKN (39-53) peptide (peptide)
peptide: RERLRREIRKELKLK
Ki [1]: 41 µM
IC50 (inhibition of Kemptide phosphorylation by PKA) [2]: ≥ 1000 µM
IC50 (inhibition of δPKC peptide phosphorylation by PKN) [3]: ~80 µM

B2: VP16 transcription activation domain fused to the head-rod domain of human NFL (amino acid sequence 1-349), pVP/NFL#21 (other)
chain: MSSFSYEPYYSTSYKRRYVETPRVHISSVRSGYSTARSAYSSYSAPVSSSLSVRRSYSSSSGSLMPSLENLDLSQVAAISNDLKSIRTQEKAQLQDLNDRFASFIERVHELEQQNKVLEAELLVLRQKHSEPSRFRALYEQEIRDLRLAAEDATNEKQALQGEREGLEETLRNLQARYEEEVLSREDAEGRLMEARKGADEAALARAELEKRIDSLMDEISFLKKVHEEEIAELQAQIQYAQISVEMDVTKPDLSAALKDIRAQYEKLAAKNMQNAEEWFKSRFTVLTESAAKNTDAVRAAKDEVSESRRLLKAKTLEIEACRGMNEALEKQLQELEDKQNADISAMQD
notes: range 1-349
binding result [4]: binds

B3: VP16 transcription activation domain fused to the head-rod domain of NFM, pVP/NFMhr (other)
chain: MSYTLDSLGNPSAYRRVTETRSSFSRVSGSPSSGFRSQSWSRGSPSTVSSSYKRSMLAPRLAYSSAMLSSAESSLDFSQSSSLLNGGSGPGGDYKLSRSNEKEQLQGLNDRFAGYIEKVHYLEQQNKEIEAEIQALRQKQASHAQLGDAYDQEIRELRATLEMVNHEKAQVQLDSDHLEEDIHRLKERFEEEARLRDDTEAAIRALRKDIEEASLVKVELDKKVQSLQDEVAFLRSNHEEEVADLLAQIQASHITVERKDYLKTDISTALKEIRSQLESHSDQNMHQAEEWFKCRYAKLTEAAEQNKEAIRSAKEEIAEYRRQLQSKSIELESVRGTKESLERQLSDIEERHNHDLSSYQDTIQQLENELRGTKWEMARHLREYQDLLNVKMALDIEIAAYRKLLEGEETR
notes: range 1-411
binding result [4]: binds

B4: truncated PKN, amino acid sequence 3-135, two-hybrid fusion (other)
chain: SDAVQSEPRSWSLLEQLGLAGADLAAPGVQQQLELERERLRREIRKELKLKEGAENLRRATTDLGRSLGPVELLLRGSSRRLDLLHQQLQELHAHVVLPDPAATHDGPQSPGAGGPTCSATNLSRVAGLEKQL
notes: also called PKN 3-135
binding result [5]: binds

B5: Gal4 activation domain fusion of library clone #21 (head-rod domain of human NFL, amino acid sequence 1-349), pGAD10-NFL#21 (other, UniProt P07196 1-349, looked up, not shown: large carriers)
chain: B2 chain
notes: range 1-349; also called clone#21 protein; plasmid #21
binding result [6]: binds

B6: GST-HuActSkl (837-894) (other, human, UniProt P35609 837-894, looked up)
chain: ILASDKPYILAEELRRELPPDQAQYCIKRMPAYSGPGSVPGALDYAAFSSALYGESDL
notes: not shown: glutathione S-transferase (GST) tag
binding result [7]: no binding

B7: GST-HuActSkl (604-719) (other, human, UniProt P35609 604-719, looked up)
chain: MDELRTKWDKVKQLVPIRDQSLQEELARQHANERLRRQFAAQANAIGPWIQNKMEEIARSSIQITGALEDQMNQLKQYEHNIINYKNNIDKLEGDHQLIQEALVFDNKHTNYTMEH
notes: as for B6
binding result [7]: no binding
